Literature values in paper PMC3405059.

Biological target: MSPβ beta chain (Homo sapiens) (UniProt P26927)
Test: SPR

UniProt P26927, sequence (P26927 484-711): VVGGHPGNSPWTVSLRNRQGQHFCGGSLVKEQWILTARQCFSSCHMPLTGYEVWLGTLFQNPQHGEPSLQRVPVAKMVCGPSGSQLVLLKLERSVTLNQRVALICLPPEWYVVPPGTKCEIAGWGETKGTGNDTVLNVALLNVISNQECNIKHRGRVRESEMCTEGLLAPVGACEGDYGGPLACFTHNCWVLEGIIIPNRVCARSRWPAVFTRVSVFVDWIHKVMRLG

- Kd: 13 nM
Substance: RON ECD (from UniProt Q04912)
